Sequences and labels used below:
B1: MNAT1 (parent)
chain: LEEALYEYQPLQIETYGPHVPELE
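Note: lentivirally expressed fusions sorted by FACS into six bins by GFP to DsRed ratio, PSI derived from sequencing read proportions per bin multiplied by bin number.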

In this data set the parent is B1. The data set can be described thus: protein stability index of a GFP-peptide fusion (GPS, HEK-293T) (PSI 1-6); higher = more stable. To be noted: c terminus: a fixed tail appended.
Turning to LEEALYEYQPLQIETDGPHVPELE [Y16D], the protein stability index was 5.37.

Take LEEALYEYQPLQIETFGPHVPELE [Y16F]: the protein stability index stood at 3.49.

With LEEALYEYQPLQIETEGPHVPELE [Y16E], the protein stability index was found to be 4.13.

LEEALYEYQPLQIETAGPHVPELE [Y16A]: the protein stability index is 4.54.

In the case of LEEALYEYQPLQIETCGPHVPELE [Y16C], the protein stability index stood at 3.84.

Regarding LEEALYEYQPLDIETYGPHVPELE [Q12D], the protein stability index turned out to be 3.92.

Regarding LEEALYEYQPLHIETYGPHVPELE [Q12H], the protein stability index is 2.5.

On to LEEALYEYQPLLIETYGPHVPELE [Q12L], for which the protein stability index was 2.67.

Take LEEALYEYQPLRIETYGPHVPELE [Q12R]: the protein stability index was found to be 2.27.

As for LEEALYEYQPLWIETYGPHVPELE [Q12W], the protein stability index stood at 2.11.

Consider LEEALYEYQPLAIETYGPHVPELE [Q12A], for which the protein stability index worked out at 2.33.

As to LEEALYEYQPLVIETYGPHVPELE [Q12V], the protein stability index was 2.46.

With LEEALYEYQPLKIETYGPHVPELE [Q12K], the protein stability index was determined as 1.84.

As to LEEALYEYQPLMIETYGPHVPELE [Q12M], the protein stability index came to 2.35.

Consider LEEALYEYQPLSIETYGPHVPELE [Q12S], for which the protein stability index turned out to be 2.21.

Take LEEALYEYQPLEIETYGPHVPELE [Q12E]: the protein stability index amounted to 3.67.

LEEALYEYQPLYIETYGPHVPELE [Q12Y]: the protein stability index came out at 2.01.

Turning to LEEALYEYQPLNIETYGPHVPELE [Q12N], the protein stability index is 2.65.

With LEEALYEYQPLCIETYGPHVPELE [Q12C], the protein stability index is 2.14.

As for LEEALYEYQPLFIETYGPHVPELE [Q12F], the protein stability index is 2.12.

Consider LEEALYEYQPLGIETYGPHVPELE [Q12G], for which the protein stability index worked out at 2.75.

As for LEEALYEYQPLIIETYGPHVPELE [Q12I], the protein stability index turned out to be 2.5.

For the variant LEEALYEYQPLTIETYGPHVPELE [Q12T], the protein stability index was 3.19.

As for LEEALYEYQPLPIETYGPHVPELE [Q12P], the protein stability index amounted to 5.02.

As for LEEALYEYQPLQICTYGPHVPELE [E14C], the protein stability index came to 2.12.

In the case of LEEALYEYQPLQIMTYGPHVPELE [E14M], the protein stability index stood at 2.47.

For the variant LEEALYEYQPLQIDTYGPHVPELE [E14D], the protein stability index was found to be 2.68.

Take LEEALYEYQPLQIQTYGPHVPELE [E14Q]: the protein stability index was 2.19.

With LEEALYEYQPLQINTYGPHVPELE [E14N], the protein stability index came out at 2.61.

In the case of LEEALYEYQPLQIATYGPHVPELE [E14A], the protein stability index stood at 2.3.

For the variant LEEALYEYQPLQIPTYGPHVPELE [E14P], the protein stability index was 4.22.

Consider LEEALYEYQPLQISTYGPHVPELE [E14S], for which the protein stability index came out at 2.25.

With LEEALYEYQPLQIFTYGPHVPELE [E14F], the protein stability index worked out at 2.01.

Take LEEALYEYQPLQITTYGPHVPELE [E14T]: the protein stability index stood at 2.32.

In the case of LEEALYEYQPLQIYTYGPHVPELE [E14Y], the protein stability index turned out to be 1.87.

LEEALYEYQPLQIKTYGPHVPELE [E14K]: the protein stability index is 1.75.

On to LEEALYEYQPLQIGTYGPHVPELE [E14G], for which the protein stability index was 3.31.

Consider LEEALYEYQPLQIWTYGPHVPELE [E14W], for which the protein stability index was found to be 1.6.

Take LEEALYEYQPLQIHTYGPHVPELE [E14H]: the protein stability index came out at 1.8.

In the case of LEEALYEYQPLQIITYGPHVPELE [E14I], the protein stability index stood at 1.81.

Turning to LEEALYEYQPLQIRTYGPHVPELE [E14R], the protein stability index came out at 1.93.

Consider LEEALYEYQPLQILTYGPHVPELE [E14L], for which the protein stability index was determined as 2.01.

Take LEEALYEYQPLQIVTYGPHVPELE [E14V]: the protein stability index was found to be 1.82.

For the variant LEEALYEYQPLQIEMYGPHVPELE [T15M], the protein stability index worked out at 2.32.

In the case of LEEALYEYQPLQIEPYGPHVPELE [T15P], the protein stability index was 4.55.

As for LEEALYEYQPLQIENYGPHVPELE [T15N], the protein stability index was determined as 4.13.

LEEALYEYQPLQIEQYGPHVPELE [T15Q]: the protein stability index turned out to be 4.09.

LEEALYEYQPLQIESYGPHVPELE [T15S]: the protein stability index was determined as 3.54.

On to LEEALYEYQPLQIEYYGPHVPELE [T15Y], for which the protein stability index was found to be 2.01.

Take LEEALYEYQPLQIEDYGPHVPELE [T15D]: the protein stability index was 4.73.

On to LEEALYEYQPLQIEVYGPHVPELE [T15V], for which the protein stability index stood at 1.7.

LEEALYEYQPLQIEIYGPHVPELE [T15I]: the protein stability index worked out at 1.61.

Take LEEALYEYQPLQIEAYGPHVPELE [T15A]: the protein stability index was 1.99.

Consider LEEALYEYQPLQIELYGPHVPELE [T15L], for which the protein stability index came out at 1.82.

For the variant LEEALYEYQPLQIEWYGPHVPELE [T15W], the protein stability index amounted to 2.2.

With LEEALYEYQPLQIEEYGPHVPELE [T15E], the protein stability index turned out to be 4.43.

In the case of LEEALYEYQPLQIERYGPHVPELE [T15R], the protein stability index was 4.41.

For LEEALYEYQPLQIEKYGPHVPELE [T15K], the protein stability index came to 4.14.

With LEEALYEYQPLQIEHYGPHVPELE [T15H], the protein stability index came out at 3.91.

Regarding LEEALYEYQPLQIEGYGPHVPELE [T15G], the protein stability index is 4.13.

As for LEEALYEYQPLQIECYGPHVPELE [T15C], the protein stability index was found to be 2.18.

As for LEEALYEYQPLQIEFYGPHVPELE [T15F], the protein stability index amounted to 1.75.

With LEEALYEYQPLQDETYGPHVPELE [I13D], the protein stability index came out at 5.07.

As for LEEALYEYQPLQGETYGPHVPELE [I13G], the protein stability index amounted to 5.01.

For the variant LEEALYEYQPLQEETYGPHVPELE [I13E], the protein stability index came to 5.29.

Turning to LEEALYEYQPLQAETYGPHVPELE [I13A], the protein stability index was 5.37.

Turning to LEEALYEYQPLQKETYGPHVPELE [I13K], the protein stability index came out at 4.9.

Regarding LEEALYEYQPLQCETYGPHVPELE [I13C], the protein stability index was 4.14.

On to LEEALYEYQPLQLETYGPHVPELE [I13L], for which the protein stability index came out at 4.51.

Regarding LEEALYEYQPLQRETYGPHVPELE [I13R], the protein stability index came out at 4.76.

For the variant LEEALYEYQPLQWETYGPHVPELE [I13W], the protein stability index was determined as 3.8.

On to LEEALYEYQPLQTETYGPHVPELE [I13T], for which the protein stability index came out at 4.75.

Consider LEEALYEYQPLQPETYGPHVPELE [I13P], for which the protein stability index is 5.08.

LEEALYEYQPLQYETYGPHVPELE [I13Y]: the protein stability index came out at 4.41.

As for LEEALYEYQPLQMETYGPHVPELE [I13M], the protein stability index was determined as 4.27.

As for LEEALYEYQPLQSETYGPHVPELE [I13S], the protein stability index was 4.96.

As for LEEALYEYQPLQHETYGPHVPELE [I13H], the protein stability index worked out at 5.15.

Turning to LEEALYEYQPLQFETYGPHVPELE [I13F], the protein stability index was determined as 4.34.

For LEEALYEYQPLQQETYGPHVPELE [I13Q], the protein stability index turned out to be 5.01.

As to LEEALYEYQPLQNETYGPHVPELE [I13N], the protein stability index is 5.5.

In the case of LEEALYEYQPKQIETYGPHVPELE [L11K], the protein stability index came out at 4.26.

Consider LEEALYEYQPTQIETYGPHVPELE [L11T], for which the protein stability index came to 3.99.

In the case of LEEALYEYQPNQIETYGPHVPELE [L11N], the protein stability index was found to be 4.71.

LEEALYEYQPSQIETYGPHVPELE [L11S]: the protein stability index worked out at 4.11.

On to LEEALYEYQPVQIETYGPHVPELE [L11V], for which the protein stability index came out at 2.04.

Regarding LEEALYEYQPMQIETYGPHVPELE [L11M], the protein stability index stood at 3.17.

Consider LEEALYEYQPPQIETYGPHVPELE [L11P], for which the protein stability index was determined as 5.15.

For LEEALYEYQPQQIETYGPHVPELE [L11Q], the protein stability index is 4.28.

As to LEEALYEYQPIQIETYGPHVPELE [L11I], the protein stability index came to 2.56.

Turning to LEEALYEYQPHQIETYGPHVPELE [L11H], the protein stability index is 4.61.

On to LEEALYEYQPGQIETYGPHVPELE [L11G], for which the protein stability index came out at 5.26.

As to LEEALYEYQPWQIETYGPHVPELE [L11W], the protein stability index turned out to be 4.27.

In the case of LEEALYEYQPRQIETYGPHVPELE [L11R], the protein stability index turned out to be 4.32.

Turning to LEEALYEYQPYQIETYGPHVPELE [L11Y], the protein stability index came out at 3.18.
